Test results taken from US20260266848A1, “COMPOSITIONS AND METHODS FOR DIAGNOSING AND TREATING DYSTONIA” (Duke University, priority 2023, published 2026).

B1: C1qtnf3 (protein, UniProt Q9BXJ4 23-246, looked up)
Complement C1q tumor necrosis …: QDEYMESPQTGGLPPDCSKCCHGDYSFRGYQGPPGPPGPPGIPGNHGNNGNNGATGHEGAKGEKGDKGDLGPRGERGQHGPKGEKGYPGIPPELQIAFMASLATHFSNQNSGIIFSSVETNIGNFFDVMTGRFGAPVSGVYFFTFSMMKHEDVEEVYVYLMHNGNTVFSMYSYEMKGKSDTSSNHAVLKLAKGDEVWLRMGNGALHGDHQRFSTFAGFLLFETK
B2: Hnrnph1 (protein, UniProt O35737 1-449, looked up)
Heterogeneous nuclear …: MMLGAEGGEGFVVKVRGLPWSCSADEVQRFFSDCKIQNGAQGIRFIYTREGRPSGEAFVELESEDEVKLALKKDRETMGHRYVEVFKSNNVEMDWVLKHTGPNSPDTANDGFVRLRGLPFGCSKEEIVQFFSGLEIVPNGITLPVDFQGRSTGEAFVQFASQEIAEKALKKHKERIGHRYIEIFKSSRAEVRTHYDPPRKLMAMQRPGPYDRPGAGRGYNSIGRGAGFERMRRGAYGGGYGGYDDYNGYNDGYGFGSDRFGRDLNYCFSGMSDHRYGDGGSTFQSTTGHCVHMRGLPYRATENDIYNFFSPLNPVRVHIEIGPDGRVTGEADVEFATHEDAVAAMSKDKANMQHRYVELFLNSTAGASGGAYEHRYVELFLNSTAGASGGAYGSQMMGGMGLSNQSSYGGPASQQLSGGYGGGYGGQSSMSGYDQVLQENSSDFQSNIA
B3: Mdk (protein, UniProt P12025 23-140, looked up)
Midkine: KKKEKVKKGSECSEWTWGPCTPSSKDCGMGFREGTCGAQTQRVHCKVPCNWKKEFGADCKYKFESWGACDGSTGTKARQGTLKKARYNAQCQETIRVTKPCTSKTKSKTKAKKGKGKD
B4: Pld3 (protein, UniProt O35405 1-488, looked up)
5'-3' exonuclease PLD3: MKPKLMYQELKVPVEEPAGELPLNEIEAWKAAEKKARWVLLVLILAVVGFGALMTQLFLWEYGDLHLFGPNQRPAPCYDPCEAVLVESIPEGLEFPNATTSNPSTSQAWLGLLAGAHSSLDIASFYWTLTNNDTHTQEPSAQQGEEVLQQLQALAPRGVKVRIAVSKPNGPLADLQSLLQSGAQVRMVDMQKLTHGVLHTKFWVVDQTHFYLGSANMDWRSLTQVKELGVVMYNCSCLARDLTKIFEAYWFLGQAGSSIPSTWPRSFDTRYNQETPMEICLNGTPALAYLASAPPPLCPSGRTPDLKALLNVVDSARSFIYIAVMNYLPTMEFSHPRRFWPAIDDGLRRAAYERGVKVRLLISCWGHSDPSMRSFLLSLAALHDNHTHSDIQVKLFVVPTDESQARIPYARVNHNKYMVTERASYIGTSNWSGSYFTETAGTSLLVTQNGHGGLRSQLEAVFLRDWESPYSHDLDTSANSVGNACRLL
B5: Gsto1 (protein, UniProt O09131 2-240, looked up)
Glutathione S-transferase …: SGESSRSLGKGSAPPGPVPEGQIRVYSMRFCPFAQRTLMVLKAKGIRHEVININLKNKPEWFFEKNPLGLVPVLENSQGHLVTESVITCEYLDEAYPEKKLFPDDPYKKARQKMTLESFSKVPPLIASFVRSKRKEDSPNLREALENEFKKLEEGMDNYKSFLGGDSPSMVDYLTWPWFQRLEALELKECLAHTPKLKLWMAAMQQDPVASSHKIDAKTYREYLNLYLQDSPEACDYGL
B6: Ube2n (protein, UniProt P61089 1-152, looked up)
Ubiquitin-conjugating enzyme …: MAGLPRRIIKETQRLLAEPVPGIKAEPDESNARYFHVVIAGPQDSPFEGGTFKLELFLPEEYPMAAPKVRFMTKIYHPNVDKLGRICLDILKDKWSPALQIRTVLLSIQALLSAPNPDDPLANDVAEQWKTNEAQAIETARAWTRLYAMNNI

Each molecule was assayed on DYT-TOR1A MEF EVs (assay: Quantitative LC-MS/MS proteomics of EVs from drug-treated DYT-TOR1A MEF cultures (ritonavir, salubrinal)). Details: EV protein abundance, DYT + RTV (ritonavir) vs DYT, direction compared with DYT/WT.
Type: cell-based, mouse
Set-up: key to RTV Corrective Direction / RTV Corrective Direction, Grwd1 / RTV Corrective Direction, Srrm2 / RTV Corrective Direction, Rbm17 / RTV Corrective Direction, Dcaf8 / RTV Corrective Direction, Edil3 / RTV Corrective Direction, Timp3 / RTV Corrective Direction, Heatr3 / RTV Corrective Direction, Brd4 / RTV Corrective Direction, P3h4 / RTV Corrective Direction, Pacsin3 / RTV Corrective Direction, Naa50 / RTV Corrective Direction, Lpar6 / RTV Corrective Direction, Ndrg1 / RTV Corrective Direction, Kntc1 / RTV Corrective Direction, Cdk11b / RTV Corrective Direction, Sumo1 / RTV Corrective Direction, Lsm4 / RTV Corrective Direction, Hmga2 / RTV Corrective Direction, Cstf1 / RTV Corrective Direction, Tes / RTV Corrective Direction, Sbno1 / RTV Corrective Direction, Unc119b / RTV Corrective Direction, Cfdp1 / RTV Corrective Direction, Sec61b: YES = protein abundance effect opposite to DYT/WT

Molecule	RTV Corrective Direction
B1	YES
B2	YES
B3	YES
B4	YES
B5	YES
B6	YES

Same assay, conditions: EV protein abundance, ritonavir (RTV)-treated DYT vs DYT

Molecule	DYT + RTV/DYT Cohen's d
B1	−3.24
B2	4.23
B3	3.64
B4	0.61
B5	3.45
B6	6.02

These molecules were tested on WT MEF EVs (assay: Quantitative LC-MS/MS proteomics of EVs from ISRIB-treated WT MEF cultures). Details: EV protein abundance, ISRIB-treated WT vs WT.
Type: cell-based, mouse

Molecule	WT + ISRIB/WT Cohen's d
B1	−0.18
B2	2.47
B3	1.33
B4	1.18
B5	0.04
B6	0.41
